First the molecules themselves.
B2: EV-E capsid protein VP2 (natural protein)
chain: SPSAEACGYSDRVAQLTLGNSTITTQEAANICVAYGCWPAKLSDTDATSVDKPTEPGVSADAFYTLRSKPWQADSKGWYWKLPDALNNTGMFGQNAQFHYIYRGGWAVHVQCNATKFHQGTLLVLAIPEHQIATQEQPAFDRTMPGSEGGTFQEPFWLEDGTSLGNSLIYPHQWINLRTNNSATLILPYVNAIPMDSAIRHSNWTLAIIPVAPLKYAAETTPLVPITVTIAPMETEYNGLRRAIASNQ
notes: VP2, cut product of VP0 of the enterovirus-E polyprotein; genome NC_001859; modelled from residue Y9; numbers count on: the mature VP2; source: EV-E propagated in BHK cells; virions purified (sucrose cushion, sucrose gradient)

Assay [1] deals with T1, EV-E capsid protein VP1 (enterovirus-E (EV-E), UniProt P12915 560-840).
T1 construct: VP1, cut product of the enterovirus-E (formerly bovine enterovirus) polyprotein; genome NC_001859; numbers count on: the mature VP1; The N-terminal arm is not fully built in the model; source: EV-E propagated in BHK cells; virions purified (sucrose cushion, sucrose gradient)
T1 sequence: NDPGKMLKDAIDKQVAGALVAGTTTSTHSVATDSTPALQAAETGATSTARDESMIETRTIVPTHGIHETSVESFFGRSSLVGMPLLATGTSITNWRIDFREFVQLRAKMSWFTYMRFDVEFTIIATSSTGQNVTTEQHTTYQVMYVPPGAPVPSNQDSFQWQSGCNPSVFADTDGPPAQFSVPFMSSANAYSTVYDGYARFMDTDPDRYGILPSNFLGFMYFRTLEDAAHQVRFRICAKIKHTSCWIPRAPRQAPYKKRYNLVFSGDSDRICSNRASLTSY
Description: cryo-EM structure; purified EV-E virions in PBS; single particle analysis with icosahedral symmetry, ~2.2 Å; also symmetry expansion and focused classification. To be noted: both partners purified.

Assay [2] deals with B2. Described as above. To be noted: both partners purified.

B1: EV-E capsid protein VP3 (natural protein)
chain: GLPTKPGPGSYQFMTTDEDCSPCILPDFQPTLEIFIPGKVNNLLEIAQVESILEANNREGVEGVERYVIPVSVQDALDAQIYALRLELGGSGPLSSSLLGTLAKHYTQWSGSVEITCMFTGTFMTTGKVLLAYTPPGGDMPRNREEAMLGTHVVWDFGLQSSITLVIPWISASHFRGVSNDDVLNYQYYAAGHVTIWYQTNMVIPPGFPNTAGIIMMIAAQPNFSFRIQKDREDMTQTAILQ
notes: VP3, cut product of the enterovirus-E polyprotein; genome NC_001859; numbers count on: the mature VP3; source: EV-E propagated in BHK cells; virions purified (sucrose cushion, sucrose gradient)
With B1, the binding result in assay [1] and in assay [2] was “binds” throughout.

Take B2: the binding result in assay [1] is recorded as “binds”.

Values taken from paper PMC7793301, “Assembly of infectious enteroviruses depends on multiple, conserved genomic RNA-coat protein contacts” (PLoS Pathogens, 2020).
